Test results: the supplement of paper PMC11246515
± gives the standard deviation of the averaged measurements.

Assay: total protein half-life in vivo (active degradation + dilution); higher = more stable protein
[1] = E. coli NCM3722 delta-clpP delta-lon delta-hslV, growth: N-lim chemostat, doubling time 6 h
[2] = E. coli NCM3722 delta-clpP, growth: N-lim chemostat, doubling time 6 h
[3] = E. coli NCM3722 delta-hslV, growth: N-lim chemostat, doubling time 6 h
[4] = E. coli NCM3722 delta-lon, growth: N-lim chemostat, doubling time 6 h
[5] = E. coli NCM3722 delta-smpB, growth: N-lim chemostat, doubling time 6 h
[6] = wild type E. coli NCM3722, growth: C-lim chemostat, doubling time 3 h
[7] = wild type E. coli NCM3722, growth: C-lim chemostat, doubling time 6 h
[8] = wild type E. coli NCM3722, growth: C-lim chemostat, doubling time 12 h
[9] = wild type E. coli NCM3722, growth: N-lim chemostat, doubling time 6 h
[10] = wild type E. coli NCM3722, growth: N-lim chemostat, doubling time 12 h
[11] = wild type E. coli NCM3722, growth: P-lim chemostat, doubling time 6 h
[12] = wild type E. coli NCM3722, growth: P-lim chemostat, doubling time 12 h

Sequence | total protein half-life in vivo [1] [h] | total protein half-life in vivo [2] [h] | total protein half-life in vivo [3] [h] | total protein half-life in vivo [4] [h] | total protein half-life in vivo [5] [h] | total protein half-life in vivo [6] [h] | total protein half-life in vivo [7] [h] | total protein half-life in vivo [8] [h] | total protein half-life in vivo [9] [h] | total protein half-life in vivo [10] [h] | total protein half-life in vivo [11] [h] | total protein half-life in vivo [12] [h]
MSQNNPLRALLDKQDILLLDGAMATELEARGCNLADSLWSAKVLVENPELIREVHLDYYRAGAQCAITASYQATPAGFAARGLDEAQSKALIGKSVELARKAREAYLAENPQAGTLLVAGSVGPYGAYLADGSEYRGDYHCSVEAFQAFHRPRVEALLDAGADLLACETLPNFSEIEALAELLTAYPRARAWFSFTLRDSEHLSDGTPLRDVVALLAGYPQVVALGINCIALENTTAALQHLHGLTVLPLVVYPNSGEHYDAVSKTWHHHGEHCAQLADYLPQWQAAGARLIGGCCRTTPADIAALKARS | 6.94 ± 1.2 | 4.714 ± 0.0092 | 4.45 ± 0.15 | 4.95 ± 0.14 | 4.6036 ± 0.0045 | 2.51 ± 0.23 | 5.009 ± 0.032 | 8.67 ± 1.6 | 5.31 ± 0.38 | 8.64 ± 0.12 | 6.15 ± 0.4 | 13 ± 0.82
MSDQFDAKAFLKTVTSQPGVYRMYDAGGTVIYVGKAKDLKKRLSSYFRSNLASRKTEALVAQIQQIDVTVTHTETEALLLEHNYIKLYQPRYNVLLRDDKSYPFIFLSGDTHPRLAMHRGAKHAKGEYFGPFPNGYAVRETLALLQKIFPIRQCENSVYRNRSRPCLQYQIGRCLGPCVEGLVSEEEYAQQVEYVRLFLSGKDDQVLTQLISRMETASQNLEFEEAARIRDQIQAVRRVTEKQFVSNTGDDLDVIGVAFDAGMACVHVLFIRQGKVLGSRSYFPKVPGGTELSEVVETFVGQFYLQGSQMRTLPGEILLDFNLSDKTLLADSLSELAGRKINVQTKPRGDRARYLKLARTNAATALTSKLSQQSTVHQRLTALASVLKLPEVKRMECFDISHTMGEQTVASCVVFDANGPLRAEYRRYNITGITPGDDYAAMNQVLRRRYGKAIDDSKIPDVILIDGGKGQLAQAKNVFAELDVSWDKNHPLLLGVAKGADRKAGLETLFFEPEGEGFSLPPDSPALHVIQHIRDESHDHAIGGHRKKRAKVKNTSSLETIEGVGPKRRQMLLKYMGGLQGLRNASVEEIAKVPGISQGLAEKIFWSLKH [P0A8G0] | 6.54 ± 0.81 | 5.14 ± 0.15 | 4.77 ± 0.12 | 6.421 ± 0.061 | 4.75 ± 0.15 | 2.84 ± 0.067 | 5.1 ± 0.39 | 7.83 ± 0.25 | 4.84 ± 0.28 | 8.62 ± 0.12 | 4.61 ± 0.15 | 8.48 ± 0.19
MISAFDIFKIGIGPSSSHTVGPMNAGKSFIDRLESSGLLTATSHIVVDLYGSLSLTGKGHATDVAIIMGLAGNSPQDVVIDEIPAFIELVTRSGRLPVASGAHIVDFPVAKNIIFHPEMLPRHENGMRITAWKGQEELLSKTYYSVGGGFIVEEEHFGLSHDVETSVPYDFHSAGELLKMCDYNGLSISGLMMHNELALRSKAEIDAGFARIWQVMHDGIERGMNTEGVLPGPLNVPRRAVALRRQLVSSDNISNDPMNVIDWINMYALAVSEENAAGGRVVTAPTNGACGIIPAVLAYYDKFRRPVNERSIARYFLAAGAIGALYKMNASISGAEVGCQGEIGVACSMAAAGLTELLGGSPAQVCNAAEIAMEHNLGLTCDPVAGQVQIPCIERNAINAVKAVNAARMAMRRTSAPRVSLDKVIETMYETGKDMNDKYRETSRGGLAIKVVCG | 4.67 | – | – | – | – | – | 2.13 | 2.34 | – | – | – | –
MPQISRYSDEQVEQLLAELLNVLEKHKAPTDLSLMVLGNMVTNLINTSIAPAQRQAIANSFARALQSSINEDKAH [P0AD24] | 6.24 ± 0.65 | 4.76 | 5.69 ± 0.2 | 4.63 ± 1.3 | 4.16 ± 1.4 | 2.99 ± 0.041 | 5.16 ± 0.18 | 10.1 ± 0.73 | 3.54 ± 0.42 | 9.19 | 5.83 | 10.4
MLGLKQVHHIAIIATDYAVSKAFYCDILGFTLQSEVYREARDSWKGDLALNGQYVIELFSFPFPPERPSRPEACGLRHLAFSVDDIDAAVAHLESHNVKCETIRVDPYTQKRFTFFNDPDGLPLELYEQ | 3.94 ± 0.96 | 4.26 ± 0.34 | – | 4.65 ± 0.89 | 3.22 | 2.51 | 5.13 | 11.4 | 3.54 | 4.57 ± 0.75 | 6.05 ± 1.1 | 11.7 ± 0.74
MKRPDYRTLQALDAVIRERGFERAAQKLCITQSAVSQRIKQLENMFGQPLLVRTVPPRPTEQGQKLLALLRQVELLEEEWLGDEQTGSTPLLLSLAVNADSLATWLLPALAPVLADSPIRLNLQVEDETRTQERLRRGEVVGAVSIQHQALPSCLVDKLGALDYLFVSSKPFAEKYFPNGVTRSALLKAPVVAFDHLDDMHQAFLQQNFDLPPGSVPCHIVNSSEAFVQLARQGTTCCMIPHLQIEKELASGELIDLTPGLFQRRMLYWHRFAPESRMMRKVTDALLDYGHKVLRQD [P0A8S1] | 5.48 ± 0.31 | 5.93 ± 1.3 | 5.46 ± 0.27 | 5.78 ± 0.57 | 4.96 ± 0.39 | 3.01 ± 0.31 | – | 11.6 ± 0.16 | 5.84 ± 0.67 | 9.72 ± 0.46 | 6.03 ± 0.091 | 13.4 ± 0.89
MSEALKILNNIRTLRAQARECTLETLEEMLEKLEVVVNERREEESAAAAEVEERTRKLQQYREMLIADGIDPNELLNSLAAVKSGTKAKRAQRPAKYSYVDENGETKTWTGQGRTPAVIKKAMDEQGKSLDDFLIKQ [P0ACF8] | – | – | 6.19 ± 0.062 | 7.64 ± 0.48 | 5.87 ± 1.2 | 2.9 ± 0.29 | 6.22 ± 0.29 | 9.37 ± 0.21 | 5.27 ± 0.45 | 11.6 ± 2.7 | 5.16 ± 0.77 | 11.7 ± 0.41
MTNSNRIKLTWISFLSYALTGALVIVTGMVMGNIADYFNLPVSSMSNTFTFLNAGILISIFLNAWLMEIVPLKTQLRFGFLLMVLAVAGLMFSHSLALFSAAMFILGVVSGITMSIGTFLVTQMYEGRQRGSRLLFTDSFFSMAGMIFPMIAAFLLARSIEWYWVYACIGLVYVAIFILTFGCEFPALGKHAPKTDAPVEKEKWGIGVLFLSVAALCYILGQLGFISWVPEYAKGLGMSLNDAGTLVSNFWMSYMVGMWAFSFILRFFDLQRILTVLAGLAAILMYVFNTGTPAHMAWSILALGFFSSAIYTTIITLGSQQTKVPSPKLVNFVLTCGTIGTMLTFVVTGPIVEHSGPQAALLTANGLYAVVFVMCFLLGFVSRHRQHNTLTSH | 5.5 | 5.55 | 5.855 ± 0.027 | 5.47 ± 0.58 | 5.72 ± 0.19 | – | – | – | 6.5 ± 0.71 | – | 6.42 ± 1.5 | 13.3
MAQIFNFSSGPAMLPAEVLKQAQQELRDWNGLGTSVMEVSHRGKEFIQVAEEAEKDFRDLLNVPSNYKVLFCHGGGRGQFAAVPLNILGDKTTADYVDAGYWAASAIKEAKKYCTPNVFDAKVTVDGLRAVKPMREWQLSDNAAYMHYCPNETIDGIAIDETPDFGADVVVAADFSSTILSRPIDVSRYGVIYAGAQKNIGPAGLTIVIVREDLLGKANIACPSILDYSILNDNGSMFNTPPTFAWYLSGLVFKWLKANGGVAEMDKINQQKAELLYGVIDNSDFYRNDVAKANRSRMNVPFQLADSALDKLFLEESFAAGLHALKGHRVVGGMRASIYNAMPLEGVKALTDFMVEFERRHG | 5.23 ± 1.6 | 3.87 ± 0.14 | 3.6976 ± 0.003 | 4.479 ± 0.022 | 3.55 ± 0.13 | 3.13 ± 0.2 | 5.71 ± 0.44 | 11.1 ± 2.7 | 3.83 ± 0.23 | 5.898 ± 0.048 | 5.74 ± 0.69 | 11.8 ± 0.42
